Laboratory results from the nanobody polyreactivity screen of Harvey et al. (2022).

Assay: yeast display, Sf9 membrane polyspecificity reagent, FACS + sequencing; frameworks hold sequencing errors
How it was run: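 A nanobody's polyreactivity label depends on the gate it was sorted from. Yeast display cells were stained with 10% biotinylated, detergent-solubilized Sf9 membrane reagent for 1 hour at 4 °C, enriched on streptavidin microbeads and sorted by FACS. The low and high (top ~1%) gates were set on anti-HA fluorescence for expression and streptavidin fluorescence for reagent binding.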

Row | Sequence | polyreactivity (PSR sort gate)
1 | QVQLVESGGWLVQAGGSLRLSCAASGSSFYGYGMGSYRQAPGKERELVAANTGSGDTTYYADSVKGRFTNSRDNEKNTVYLQMNSLKPEDTAVYYCNARWHAEYDYWGQGTQVTVSS | low polyreactivity
2 | QVQLVESGGGLVQAGGSLRLSCSASGLTFGNNAMGWYRQAPGKETELVAAISSDGTTYYADSVKGRFTISRDHAKNTVYLQMNSLKPEDSAVYYCAALYGPGREYDYWGQGTQVTVSS | low polyreactivity
3 | QVQRVESGGGLVQAGGSLRLSCAATGFTFSWYVMGWYRQAPGKERELVATITNRGGSTYYSDSVKGRFTISRDNAKNTVYLQMNSLKPEDPAVYYCAARKKGSRVGFDYWGQGTQVTVSS | high polyreactivity
4 | QFQLVESGGGLFQAGGSLRLSSAASGITFRYYAMGWYRQAPGKERELVAAITRSGSSTFYADSVKGRFTISLDNAKNTVYLQMNSLKPEDTAVYYCAAESVRAVFPDRYKYWGQGTQVTVSS | high polyreactivity
5 | QFQLVESGGGLDQAGGSLRLSCAASGRTFHAYAMGSYRQAHGKGRELVAAITRTGTTHYADSVKGRFTISRDNAKNTVFLQMNSLKPEDTAVYYCAAQHVRVAAQFVLQGYDYWGQGTQVTVSS | low polyreactivity
6 | QVQLVESGGRLVQAGGSLRLSCAPSGFTFYRYAMGWYRQAPGKEREFVAAITWSGGSTYYADSVKGRFTISRDNSKNTVYLQMNSLKPEDTAVYYCAAYVGFDGTREYDYWGQGTQVTVSS | high polyreactivity
7 | QVHLVQTGGGLVQAGGSLRLSCAASGRIFRTNGMGWYRQAPGKERELVAAISSGDSTYYADSVKVRFTISRDNAKNTVYLQMNSLKPEDTAVYYCAADFGRKGGPGYDYWGQGTQVTVSS | low polyreactivity
8 | QVQLVESGGGLVQAGGSLRLSCAASGSTFFTYAMGWYRQAPGKERELVAGISYSGGSTYYADSVKGRFTISRDNAKNTVYVQMNSLKPEDTAVYYCNAYISYGDFDLEFYYWGQGTQVTVSS | low polyreactivity
9 | QVQLVESGGGLVQAGGSLRLSCAASGSIFYSNAMGWYRQAPGKERELVAAITWRGGSTYYADSVKGRFTISRDNAKYTVYLQLNSLKPEDTAVYYCNADGSARTPYYYRWYRYGYWGQGTQVTVSS | high polyreactivity
10 | QVHLVESGGGLVQAGGSLRLSCAASGRIFAYYTMGWNRQAPGKERELVARITKNGGSTYYAESVKGRFTISRDNAKNTVYLQMNSLKPEDTAVYYCNADSGYTGRRTRERYYYWGQGTQVTVSS | high polyreactivity
11 | QVQLVESGGGLVQAGGSLRLSCAASGSTSLVNAMGWYRQAPGKERELVAAITRGGNTYYADSVKGRFTISRDNAKNTVYLQMNSLKPEDTAVYYCNVGQDALYRLEYWGQGTQVTVSS | low polyreactivity
12 | QVQLVESGGGLVQAGGSLRLSCAASGRTFTRYAMGWYRQAPGKERELVAAISYIGGRTNYADSVKGRFTISRDNAKNTVYLQMNSLKPEDTAVYYCAASRPWVYYDGLDYWGQGTQVTVSS | high polyreactivity
13 | QVQLVESGGGLVQAGGSLRLSCAASGSIFSYNALGWYRQAPGKEREFVAAISARGGSTYYADSVKGRFTISRDNAKNTVYLLMNSLKPEDTAVYYCAASWGLGTYSDSTYWGGYYYWGQGTQVTVSS | low polyreactivity
14 | QVQLVESGRGLVQAGGSLRLSCAASGSTFPKNAMGWYRQAPGKERELVASISSDGSTYYADSVKGRFTISRDNAKNTVYLQMNSLKPEDTAVYYCAAVLWEPPVHPGYDYWGQVTQVTVSS | low polyreactivity
15 | QVHLVESGGGLVQAGGSLLLSCAASGSTQLGNAMGWYRQAPGKERELVAAISTSGDSTNYADSVKGRFTISRDNAKNTVYLEMNSLKPEDTAVYYCNAGGYLNSDVDRVGYWGQGTQVTVSS | low polyreactivity
16 | QVQHVESGGGLVQAGLSLRLSCAASGRIFYGYAMGWYRQGPGQEREFVAAITSGGRTYYADSVKGRFTISRDNAKTTVYLQLNSLKPEDTAVYYCAAAQYYRYGYWGQGTQVTVSS | high polyreactivity

Row | Sequence | polyreactivity (PSR sort gate)
17 | QVQLVESGGGLVQAGVSLRLSCAASGSTFAFYDMGWYRQAPGKERELVAGISSSGSTYYADSVKGPFTISRDNAKNTVYLQMNSLKPEDTAVYYCAADAPYLVPYGWWDYDYDYWGQGTQVTVSS | low polyreactivity
18 | QVQLVESGGGLVQAGGSLRLSCAASGYIFWFNAMGWYRQAPGKERELVAAITSSDASTNYADSVKGRFTISRDNAKNTVYLQMNSLKPEDTAVYYCAKSSYPRDGYESWGQGTQVTVSS | low polyreactivity
19 | QVQIVESGGGLVQAGGSLRLSCAASGSIFQGYAMGWYRQAPGKERELVAAITNRGGNTYYADSVKGRFTISRDNAKYSVYLQMNSLKPEDTAVYYCAADPRYSHSFSGYYDYWGQGTQVTVSS | high polyreactivity
20 | QVQLVESVGGLVQAGGSLRLSCAASGITFGYNAMGWYRQAPGKERELVASISYSGDSTYYADSVKGRFTISRDNAKNSVYLQMNSLKPEDTGVYYCAAGRQVLKRRYDYWGQGTQVTVSS | low polyreactivity
21 | QVQLVESGGGLVQAGGSLRLSCAASGSIFGYNVMGWYRQAPGKERELVAAINYSGGRTYYADSVKGRFTISRDNAKNTVYLEMNSLKPEDTAVYYCAAVPLSRYTVFNYDYWGQGTQVTVSS | high polyreactivity
22 | QVQLVESGGGLVQAGGSLRLSCAASGSIFAWYGMGWYRQAPGKERELVAAISTAGSTNYADSVKGRFTISRDNAKNTVYLQMNSLKQEDSAVYYCAKKSSWYYPERFDYWGQGTQVNVSS | low polyreactivity
23 | QVQLVESGGGLVQAGGSLRLSCAASGYTFPMYAMGWYRQAPGKERELVADINIGGASTYYADSVKGRFTISRDNAKNTVYLQMNSLKPEDSAVYYCAKEYYDGYFPTFDYDYWGQGTQVTVSS | low polyreactivity
24 | QVQLVESGGGLVQAGGSLRLSCAASGTMGWYRQAPGKERELVAAISQSGGSTYYADSVKGRFTISRDNAKNTVYLQMNSLKPEDTAVYYCAVDPRYGHPRRDYWGQGTQVTVSS | low polyreactivity
25 | QVQLVESGGGLVQAGGILRLSCAASGSTFQSNAMGWYRQAPGKERELVAAISSSAGTTFYADSVKGRFTISRDNAKNTVYLQMNSLKPEDTAVYYCAKKDFYFAPSPGYYRSRDYWGQGTQVTVSS | low polyreactivity
26 | QVQLVESGGGLVQAGGSLRLSCAASGRTFVYTMGWYRQAPGKERELVAAIRYSGGRTYYADSVKGRFTISRDNAKNTVYLQMNSLKPEDTAVYYCAARNYATGVRYDYWGQGTQVTVSS | high polyreactivity
27 | QVQLVESGGGLVQAGGSLRLSCAASGSTFRVYAMGWYRQAPGKERELVAAISWSGGRTYYADSVKGRFTISRDNAKNTVYLQMNSLKPEDTAVYYCAKPGYLRPSRYDYWGQGTQVTVSS | high polyreactivity
28 | QVQLVESGGGLVQAGGSLRLSCAASGSTFYYYAMGWYRQAPGKERELVAAISSGGSTYADSVKGRFTISRDNAKNTVYLQMNSLKPEDTAVYWGQGTQVTVSS | low polyreactivity
29 | QVQLVESGGGLVQAGGSLRLSCAASGRTFYHYAMGWYRQAPGKESELVAAIDWSTASTYYADSVKGRFTISRDNAKNTVYLQMNSLKPEDTAVYYCATDTAILINFVLYDYWGQGTQVTVSS | low polyreactivity
30 | QVQLVESGGGLVQAGGSLRLSCAASGLIFSYYAMGWYRQAPGKERELVAGITRSGASTYADSVKGRFTISRDNAKNTVYLQMNSLKPEDTAVYYCAADWHYLGWFWQYSKYDYWGQGTQVTVSS | high polyreactivity
31 | QVQLVESGGGLVQAGGSLRLSCAASGSIFSVYAMGWYRQAPGKERELVAAITSGTSTYADSVKGRFTISRDNAKNTVYLQMNSLKPEDTAVYYCAAEFLWIVDYWGQGTQVTVSS | low polyreactivity
32 | QVQLVESGGGLVQAGGSLRLSCAASGRTFPIYAMGWYRQAPGKERELVAAITRGGRTNYADSVKGRFTISRDNAKNTVYLQMNSLKTEDTAVYYCAARSYGTYLYAEYDYWGQGTQVTVSS | high polyreactivity
